Reference: publication PMC2719695, “Structures of native human thymidine phosphorylase and in complex with 5-iodouracil” (Biochemical and Biophysical Research Communications, 2009)

Target: the molecule itself
Assay: crystal structure; native hTP without ligand, space group P2(1), 0.1 M Na-acetate pH 5.2, 25% PEG 4000, 0.1 M ammonium acetate; 3.0 Å; four chains in the asymmetric unit

B1: Human thymidine phosphorylase (enzyme)
chain: APPAPGDFSGEGSQGLPDPSPEPKQLPELIRMKRDGGRLSEADIRGFVAAVVNGSAQGAQIGAMLMAIRLRGMDLEETSVLTQALAQSGQQLEWPEAWRQQLVDKHSTGGVGDKVSLVLAPALAACGCKVPMISGRGLGHTGGTLDKLESIPGFNVIQSPEQMQVLLDQAGCCIVGQSEQLVPADGILYAARDVTATVDSLPLITASILSKKLVEGLSALVVDVKFGGAAVFPNQEQARELAKTLVGVGASLGLRVAAALTAMDKPLGRCVGHALEVEEALLCMDGAGPPDLRDLVTTLGGALLWLSGHAGTQAQGAARVAAALDDGSALGRFERMLAAQGVDPGLARALCSGSPAERRQLLPRAREQEELLAPADGTVELVRALPLALVLHELGAGRSRAGEPLRLGVGAELLVDVGQRLRRGTPWLRVHRDGPALSGPQSRALQEALVLSDRAPFAAPSPFAELVLPPQQ
notes: Human thymidine phosphorylase (hTP, EC 2.4.2.4), cDNA clone from the Mammalian Gene Collection; residues 32-480 are seen in the crystals; Homodimer; the His tag is surmised from the Ni2+ column; Native crystal: residues 34-479 in all four copies (32, 33 and 480 in some chains); complex with 5-iodouracil: residues 35-480 in both chains; also called hTP; TP; source: E. coli …
For B1, the “stoichiometry N” value was 2.
